The target of the assay is telomerase of HT1080 cells (telomerase-containing fraction, or cellular telomerase in stable HT1080 lines) (human) (UniProt O14746). Kind of assay: cell-based or functional assay.

These results are taken from patent US20040142357A1.

Sequence of telomerase of HT1080 cells (telomerase-containing fraction, or cellular telomerase in stable HT1080 lines) (human) (O14746 whole entry): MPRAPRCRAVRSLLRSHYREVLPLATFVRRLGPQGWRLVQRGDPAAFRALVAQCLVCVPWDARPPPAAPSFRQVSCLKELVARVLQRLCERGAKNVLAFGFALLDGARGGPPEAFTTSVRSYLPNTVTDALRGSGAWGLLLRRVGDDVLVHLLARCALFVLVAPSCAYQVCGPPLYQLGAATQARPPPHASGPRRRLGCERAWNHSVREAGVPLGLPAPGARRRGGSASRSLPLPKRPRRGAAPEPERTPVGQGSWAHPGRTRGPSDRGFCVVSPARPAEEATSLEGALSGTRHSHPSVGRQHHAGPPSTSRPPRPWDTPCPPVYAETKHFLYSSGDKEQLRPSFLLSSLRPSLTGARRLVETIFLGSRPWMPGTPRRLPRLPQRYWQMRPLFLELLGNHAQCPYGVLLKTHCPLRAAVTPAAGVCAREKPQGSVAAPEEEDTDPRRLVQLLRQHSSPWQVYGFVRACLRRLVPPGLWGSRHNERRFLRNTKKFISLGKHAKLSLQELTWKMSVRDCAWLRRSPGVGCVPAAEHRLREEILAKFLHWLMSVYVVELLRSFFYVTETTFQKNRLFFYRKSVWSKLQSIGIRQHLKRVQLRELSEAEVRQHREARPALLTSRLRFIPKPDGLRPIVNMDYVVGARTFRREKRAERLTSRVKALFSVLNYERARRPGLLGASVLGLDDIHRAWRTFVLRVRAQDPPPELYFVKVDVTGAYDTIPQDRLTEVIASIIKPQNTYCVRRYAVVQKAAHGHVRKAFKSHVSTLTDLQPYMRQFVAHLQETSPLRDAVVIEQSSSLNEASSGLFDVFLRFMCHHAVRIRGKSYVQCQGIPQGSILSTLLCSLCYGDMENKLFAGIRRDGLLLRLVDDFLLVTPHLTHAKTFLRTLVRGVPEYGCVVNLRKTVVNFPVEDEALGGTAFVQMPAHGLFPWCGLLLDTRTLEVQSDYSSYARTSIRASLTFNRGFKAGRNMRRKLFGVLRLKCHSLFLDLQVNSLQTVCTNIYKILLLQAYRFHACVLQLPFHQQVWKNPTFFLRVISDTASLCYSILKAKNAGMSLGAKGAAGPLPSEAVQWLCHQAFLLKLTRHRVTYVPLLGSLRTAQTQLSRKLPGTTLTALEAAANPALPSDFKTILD

In turn, “His-PinX1 (N-terminal His fusion of PinX1, pET28a) (from UniProt Q96BK5 1-328)” gave an IC50 of inhibition of telomerase activity in vitro (TRAP assay) of 25 nM.
